Reference: PMC4414150, “Zfra activates memory Hyal-2+ CD3− CD19− spleen cells to block cancer growth, stemness, and metastasis in vivo” (Oncotarget, 2015)

Biological target: T1, Zfra16–31
T1 construct: Zfra, residues 16-31; also called Zfra peptide of amino acid #16–31; source: synthetic peptide (manual synthesis, Genemed Synthesis)
T1 peptide: FRAHTQKNAATPFLAN
Assay: SDS-PAGE of the incubated peptide (ladder of polymers); peptides alone (2 mM in 100 μl PBS) or mixed together, room temperature, 24 hr (legend; the text says sterile MilliQ water, 48 hr); non-reducing and reducing gels; less polymerization in MilliQ water
Settings: both partners purified

B1: Zfra1–15 (peptide)
peptide: MSSRRSSSCKYCEQD
notes: Zfra, residues 1-15; also called Zfra peptide of amino acid #1–15; source: synthetic peptide (manual synthesis, Genemed Synthesis)
  binding result: binds
